Assay results as given in paper PMC5986058.

Substrate: C[C@H](O)[C@H](N)C(=O)O
Assay: purified protein
Format: biochemical, Aeromonas jandaei
Settings: 50 mM NaPi pH 8, 25 °C, 50 μM PLP

B1: LTAaj (L-threonine aldolase from Aeromonas jandaei; L-allo-threonine aldolase) (Aeromonas jandaei) (protein)
chain: MRYIDLRSDTVTQPTDAMRQCMLHAEVGDDVYGEDPGVNALEAYGADLLGKEAALFVPSGTMSNLLAVMSHCQRGEGAVLGSAAHIYRYEAQGSAVLGSVALQPVPMQADGSLALADVRAAIAPDDVHFTPTRLVCLENTHNGKVLPLPYLREMRELVDEHGLQLHLDGARLFNAVVASGHTVRELVAPFDSVSICLSKGLGAPVGSLLVGSHAFIARARRLRKMVGGGMRQAGILAQAGLFALQQHVVRLADDHRRARQLAEGLAALPGIRLDLAQVQTNMVFLQLTSGESAPLLAFMKARGILFSGYGELRLVTHLQIHDDDIEEVIDAFTEYLGA
notes: C-terminal His-tag, expressed in E. coli BL21(DE3), Ni-NTA purified, homotetramer, PLP-dependent
Km: 0.5 mM | kcat: 8.67 s⁻¹ | kcat/Km: 17000 M⁻¹ s⁻¹
